Reference: the supplement of paper PMC7877785
± gives the uncertainty stated by the source.

Experiment: self-splicing fitness, log relative to wild type (ln ratio); higher = more splicing; Tetrahymena group I intron in knt gene, E. coli kanamycin selection, DiMSum; sequences stand for … in CUCUCU…GGAGGGAAAAGUUAUCAGGCAUGCACCUGGUAGCUAGUCUUUAAACCAAUAGAUUGCAUCGGUUUAAAAGGCAAGACCGUCAAAUUGCGGGAAAGGGGUCAACAGCCGUUCAGUACCAAGUCUCAGGGGAAACUUUGAGAUGGCCUUGCAAAGGGUAUGGUAAUAAGCUGACGGACAUGGUCCUAACCACGCAGCCAAGUCCUAAGUCAACAGAUCUUCUGUUGAUAUGGAUGCAGUUCACAGACUAAAUGUCGGUCGGGGAAGAUGUAUUCUUCUCAUAAGAUAUAGUCGGACCUCUCCUUAAUGGGAGCUAGCGGAUGAAGUGAUGCAACACUGGAGCCGCUGGGAACUAAUUUGUAUGCGAAAGUAUAUUGAUUAGUUUUGGAGUACUCGUGGUCG
Method in brief: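 Library with all eight P1ex-region intron nucleotides randomised, intron inside the knt kanamycin-resistance gene on pET-22b(+), in E. coli BL21(DE3). Cells grew overnight at 37°C or 30°C on LB agar with or without 25 μg/mL kanamycin (plus 100 μg/mL carbenicillin, 50 μM IPTG, 0.2% rhamnose), in six replicate transformations. Pooled colonies were amplicon-sequenced on Illumina HiSeq 2500. DiMSum fitness is the error-weighted combination of wild-type-normalised replicate fold changes, kanamycin versus none.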

Sequence	self-splicing fitness (ln) (30 °C)	self-splicing fitness (ln) (37 °C)
ACCGAGCAAUAUUACGGAAU	-3.65 ± 0.2	-2.33 ± 0.25
ACUAAGCAAUAUUACGCCCU	0.438 ± 0.23	-0.36 ± 0.26
CCCUAGCAAUAUUACGCAGG	-3.06 ± 0.22	-3.3 ± 0.3
UACAAGCAAUAUUACGCGGA	-1.85 ± 0.092	-1.21 ± 0.098
CCUAAGCAAUAUUACGGCGU	-4.15 ± 0.3	-2.49 ± 0.24
GGGCAGCAAUAUUACGUCGU	-0.45 ± 0.11	-0.185 ± 0.1
GCGUAGCAAUAUUACGCUGG	-2 ± 0.18	-2.12 ± 0.32
GGGGAGCAAUAUUACGGAAA	–	-0.21 ± 0.41
CGCCAGCAAUAUUACGUCGU	-3.29 ± 0.15	-2.35 ± 0.16
CGGAAGCAAUAUUACGGAAG	–	-1.5 ± 0.33
AGCUAGCAAUAUUACGGAAA	-3.11 ± 0.25	-0.395 ± 0.16
GGGAAGCAAUAUUACGGAGC	-1.91 ± 0.21	-1.3 ± 0.21
GACUAGCAAUAUUACGAUCC	-2.21 ± 0.18	-1.57 ± 0.2
GUAAAGCAAUAUUACGUUUA	-1.08 ± 0.077	-0.69 ± 0.11
GGUGAGCAAUAUUACGGCUC	-1.94 ± 0.24	-0.104 ± 0.3
AUGUAGCAAUAUUACGUGAG	-0.927 ± 0.15	-0.0873 ± 0.21
GAUUAGCAAUAUUACGUUCA	-0.941 ± 0.084	-0.497 ± 0.088
UUGCAGCAAUAUUACGAGAG	-3.54 ± 0.23	-1.36 ± 0.21
UACGAGCAAUAUUACGCAGC	-3.16 ± 0.34	-3.83 ± 0.46
UUCUAGCAAUAUUACGCUAA	-2.53 ± 0.21	-0.91 ± 0.14
AACCAGCAAUAUUACGCGAC	-2.27 ± 0.14	-1.2 ± 0.12
UCCCAGCAAUAUUACGUCAC	-4.1 ± 0.33	-3.23 ± 0.33
AACUAGCAAUAUUACGAACU	-0.149 ± 0.088	-0.455 ± 0.098
UCGCAGCAAUAUUACGAUUU	-3.55 ± 0.34	-2.24 ± 0.17

Sequence	self-splicing fitness (ln) (30 °C)	self-splicing fitness (ln) (37 °C)
GCUUAGCAAUAUUACGACGC	-0.0232 ± 0.13	-0.351 ± 0.16
GACGAGCAAUAUUACGCUAC	-2.62 ± 0.18	-2.54 ± 0.26
GGUAAGCAAUAUUACGUGUG	-2.8 ± 0.16	-2.61 ± 0.16
UAUCAGCAAUAUUACGGGUA	-1.2 ± 0.092	-0.623 ± 0.1
UGGUAGCAAUAUUACGCAUU	-1.88 ± 0.15	-1.66 ± 0.19
CUCUAGCAAUAUUACGUCAG	-2.85 ± 0.23	-2.34 ± 0.32
GGCAAGCAAUAUUACGCUGA	-1.13 ± 0.12	-1.27 ± 0.14
AGUCAGCAAUAUUACGGGCU	-2.43 ± 0.19	-3.12 ± 0.43
UUUGAGCAAUAUUACGUCCC	-2.9 ± 0.22	-2.15 ± 0.33
CAUAAGCAAUAUUACGUGUU	-3.05 ± 0.13	-2.62 ± 0.13
GAAUAGCAAUAUUACGAGGU	-4 ± 0.36	-2.61 ± 0.24
AGUAAGCAAUAUUACGCCUG	-2.19 ± 0.12	-1.15 ± 0.12
AGUUAGCAAUAUUACGCGUU	-1.32 ± 0.12	-0.816 ± 0.15
UGAAAGCAAUAUUACGAGAC	–	-1.65 ± 0.38
CCAAAGCAAUAUUACGGGAG	-3.08 ± 0.18	-2.78 ± 0.26
CCCCAGCAAUAUUACGGCAA	-3.17 ± 0.15	-3.06 ± 0.2
AUCUAGCAAUAUUACGUCCU	-1.07 ± 0.078	0.137 ± 0.096
CGUUAGCAAUAUUACGGCUU	-0.864 ± 0.16	-2.39 ± 0.31
AUGAAGCAAUAUUACGCCGU	-0.474 ± 0.12	-0.0165 ± 0.14
GGUAAGCAAUAUUACGGGUG	-3.24 ± 0.12	-1.85 ± 0.088
AAAUAGCAAUAUUACGGCAG	-1.67 ± 0.15	-0.465 ± 0.16
AAGCAGCAAUAUUACGGGUC	-3.12 ± 0.12	-2.61 ± 0.18
GUCAAGCAAUAUUACGGAUU	-2.73 ± 0.12	-1.12 ± 0.12
ACCAAGCAAUAUUACGACGU	-0.00288 ± 0.056	0.552 ± 0.063

Sequence	self-splicing fitness (ln) (30 °C)	self-splicing fitness (ln) (37 °C)
UGCCAGCAAUAUUACGAAGG	-3.59 ± 0.27	-2.6 ± 0.3
UGCCAGCAAUAUUACGUUUC	-4.47 ± 0.28	-1.17 ± 0.16
CGCUAGCAAUAUUACGGGUA	-0.542 ± 0.11	-0.011 ± 0.12
AUUCAGCAAUAUUACGGUUU	-0.00618 ± 0.064	-0.247 ± 0.072
CCCCAGCAAUAUUACGAACU	-5.09 ± 0.45	-2.29 ± 0.2
AGAUAGCAAUAUUACGCCGA	-1.89 ± 0.3	-0.973 ± 0.3
AACAAGCAAUAUUACGAGCA	-1.22 ± 0.099	-0.153 ± 0.11
CCAUAGCAAUAUUACGUACG	-0.658 ± 0.07	0.351 ± 0.086
AUAGAGCAAUAUUACGCUGC	-2.86 ± 0.29	-1.05 ± 0.2
CGCGAGCAAUAUUACGGCGG	-1.64 ± 0.12	-0.636 ± 0.17
GCAUAGCAAUAUUACGAUCC	-0.993 ± 0.19	0.0935 ± 0.28
CUGGAGCAAUAUUACGGUUU	-2.21 ± 0.15	-2.43 ± 0.26
UACCAGCAAUAUUACGGAUG	-0.756 ± 0.055	0.494 ± 0.085
UACUAGCAAUAUUACGGCAG	-0.408 ± 0.075	0.134 ± 0.12
CUUCAGCAAUAUUACGUCUU	-3.19 ± 0.16	-3.67 ± 0.42
ACGUAGCAAUAUUACGAGCC	-3.28 ± 0.35	-2.55 ± 0.44
AGCCAGCAAUAUUACGGGUC	-3.28 ± 0.18	-2.13 ± 0.2
CCCAAGCAAUAUUACGAUGA	-1.7 ± 0.19	-2.69 ± 0.24
CCUUAGCAAUAUUACGAAAG	-1.96 ± 0.11	-1.45 ± 0.089
CACGAGCAAUAUUACGUGAA	-3.63 ± 0.14	-2.49 ± 0.12
AAUAAGCAAUAUUACGCGAC	-1.61 ± 0.14	-1.46 ± 0.14
AAAAAGCAAUAUUACGUUAU	-2.13 ± 0.071	-1.55 ± 0.1
UAAAAGCAAUAUUACGGUGA	-1.15 ± 0.077	-0.788 ± 0.076
UAGUAGCAAUAUUACGGAUG	-0.956 ± 0.084	-0.222 ± 0.087

Sequence	self-splicing fitness (ln) (30 °C)	self-splicing fitness (ln) (37 °C)
GAAGAGCAAUAUUACGUCGG	-3.36 ± 0.3	-2.37 ± 0.3
AUACAGCAAUAUUACGACUU	-0.367 ± 0.065	0.271 ± 0.081
CCUAAGCAAUAUUACGCCUA	-2.7 ± 0.21	-2.24 ± 0.28
AUCAAGCAAUAUUACGCGUG	-2.23 ± 0.08	-0.744 ± 0.084
AGUCAGCAAUAUUACGCGUU	0.159 ± 0.077	0.0714 ± 0.085
UUGAAGCAAUAUUACGUAUG	-0.752 ± 0.079	-0.391 ± 0.11
UUUAAGCAAUAUUACGCCAA	-0.939 ± 0.14	0.281 ± 0.24
CUUCAGCAAUAUUACGGGCU	-3.81 ± 0.27	-2.83 ± 0.31
CACAAGCAAUAUUACGGAGG	-2.14 ± 0.089	-0.826 ± 0.1
UGGCAGCAAUAUUACGUACG	-0.616 ± 0.077	-0.265 ± 0.12
AUCGAGCAAUAUUACGCCGA	-3.08 ± 0.34	–
ACGUAGCAAUAUUACGUAAG	-3.51 ± 0.17	-2.45 ± 0.22
GGAUAGCAAUAUUACGGUAA	-2 ± 0.14	-1.45 ± 0.12
UGAUAGCAAUAUUACGCAGG	-3.38 ± 0.24	-2.27 ± 0.36
AGUGAGCAAUAUUACGGGAA	-2.94 ± 0.29	–
AUUGAGCAAUAUUACGCAGU	-2.95 ± 0.36	-2.11 ± 0.38
UCUGAGCAAUAUUACGGUCG	-4.19 ± 0.33	-2.67 ± 0.28
AACGAGCAAUAUUACGCAUU	-1.24 ± 0.12	-2.9 ± 0.24
CGUCAGCAAUAUUACGGGGG	-3.62 ± 0.2	-2.05 ± 0.14
CGUUAGCAAUAUUACGACAU	-1.529 ± 0.015	-0.592 ± 0.033
GUUGAGCAAUAUUACGUGAG	-1.93 ± 0.15	-1.42 ± 0.19
UUCUAGCAAUAUUACGCCAA	-1.75 ± 0.21	-0.272 ± 0.2
UAAGAGCAAUAUUACGAUCG	-3.62 ± 0.17	-1.53 ± 0.18
UCUGAGCAAUAUUACGGAAU	-3.33 ± 0.34	-1.88 ± 0.27
